The record followed here is patent publication US20250368738A1 (PHILOGEN S P A, published 2025).

For test [1], the target named is T1, murine CD28 on the surface of primary mouse T cells (mouse, UniProt P31041 20-218).
T1 construct: whole, on cells
Put plainly: flow cytometry on primary mouse T cells, 50 nM antibody.

The target in another test is T2, murine CD28 Fc (mouse, UniProt P31041 20-150).
T2 construct: also called murine CD28 ECD; mouse CD28 Fc; not shown: His6 tag and Fc part of the murine construct
Put plainly: titration ELISA, His6-tagged CD28-ECD on NiNTA plates, FITC-conjugated antibody. (In general: ELISA stands for enzyme-linked immunosorbent assay.)

The target of test [2] is T3, human CD28 expressed on primary human T cells (human, UniProt P10747 19-220).
T3 construct: whole, on cells; also called primary human T cells expressing CD28
In words: flow cytometry on primary human T cells, 50 nM antibody. In general terms: A flow cytometer gives signals particle by particle.
Procedure: Cells were first blocked for 30 minutes in FACS buffer (PBS, 2% FBS and 2 mM EDTA). […] Zombie near infrared (NIR) was used to discriminate live from dead cells.

In test [3] the target is T4, human CD28-ECD (extracellular domain) recombinant fragment containing a C-terminal Avi tag, His6 tag and Fc … (human, site specifically biotinylated using BirA (Avi tag) in the ELISA of Example 2.1).
T4 construct: also called CD28-Fc; CD28-Fc fusion protein
Put plainly: titration ELISA.

In test [4] the target is T5, human CTLA-4 protein containing His6 Tag (SinoBiological, Cat: 11159-H08H) (human, UniProt P16410 36-162).
T5 construct: Bought protein
In words: titration ELISA, His6-tagged human CTLA-4 on NiNTA plates, FITC-conjugated antibody.

For test [5], the target named is T1, murine CD28 on the surface of primary …. In words: flow cytometry on primary mouse T cells.
Procedure: Cells were first blocked for 30 minutes in FACS buffer (PBS, 2% FBS and 2 mM EDTA). […] Zombie NIR was used to discriminate live from dead cells.

T4 sequence (chain, as listed by the source limits assumed): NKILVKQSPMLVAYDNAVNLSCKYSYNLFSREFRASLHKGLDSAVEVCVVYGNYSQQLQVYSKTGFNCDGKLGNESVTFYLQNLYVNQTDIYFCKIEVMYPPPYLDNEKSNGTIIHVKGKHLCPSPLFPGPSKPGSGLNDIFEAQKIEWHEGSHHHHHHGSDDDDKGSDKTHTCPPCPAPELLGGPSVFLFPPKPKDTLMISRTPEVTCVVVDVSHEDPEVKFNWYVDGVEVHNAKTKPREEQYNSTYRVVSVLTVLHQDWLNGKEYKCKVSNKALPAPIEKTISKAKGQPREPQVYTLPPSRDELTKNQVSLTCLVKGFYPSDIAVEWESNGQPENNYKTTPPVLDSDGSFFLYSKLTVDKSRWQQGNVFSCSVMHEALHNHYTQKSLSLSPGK

B1: anti-human CEA IgG/AE2P (scFv)2 bispecific antibody in IgG-(scFv)2 (2+2) format (format 1, FIG. 13) (bispecific antibody)
heavy: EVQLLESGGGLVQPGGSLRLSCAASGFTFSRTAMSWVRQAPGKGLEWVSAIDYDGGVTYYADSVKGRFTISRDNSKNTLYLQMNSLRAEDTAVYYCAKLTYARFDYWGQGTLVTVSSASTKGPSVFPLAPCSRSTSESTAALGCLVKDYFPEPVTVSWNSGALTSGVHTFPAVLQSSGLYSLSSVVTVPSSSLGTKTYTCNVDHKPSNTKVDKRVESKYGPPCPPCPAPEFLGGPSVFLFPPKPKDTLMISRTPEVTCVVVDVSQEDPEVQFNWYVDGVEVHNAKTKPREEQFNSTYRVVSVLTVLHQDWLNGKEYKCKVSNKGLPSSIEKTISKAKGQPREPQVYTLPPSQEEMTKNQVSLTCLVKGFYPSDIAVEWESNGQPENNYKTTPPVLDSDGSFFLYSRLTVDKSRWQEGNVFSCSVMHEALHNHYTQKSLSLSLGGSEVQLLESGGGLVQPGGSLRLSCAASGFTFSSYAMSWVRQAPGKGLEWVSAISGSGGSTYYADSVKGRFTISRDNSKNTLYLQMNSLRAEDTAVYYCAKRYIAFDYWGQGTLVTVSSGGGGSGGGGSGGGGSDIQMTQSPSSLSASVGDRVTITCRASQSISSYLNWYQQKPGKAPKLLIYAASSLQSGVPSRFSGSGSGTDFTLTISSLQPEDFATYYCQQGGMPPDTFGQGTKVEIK
light: EIVLTQSPGTLSLSPGERATLSCRASQSVSQNHLAWYQQKPGQAPRLLIYLASRRHTGIPDRFSGSGSGTDFTLTISRLEPEDFAVYYCQQSGRVPWTFGQGTKVEIKRTVAAPSVFIFPPSDEQLKSGTASVVCLLNNFYPREAKVQWKVDNALQSGNSQESVTEQDSKDSTYSLSSTLTLSKADYEKHKVYACEVTHQGLSSPVTKSFNRGEC
notes: also called anti-human CEA IgG/anti-CD28 (scFv)2 bispecific antibody
Turning to B1, the binding result in test [1] was “binds”.

B2: AE2P antibody in IgG4 format (antibody, V domains shown)
VH: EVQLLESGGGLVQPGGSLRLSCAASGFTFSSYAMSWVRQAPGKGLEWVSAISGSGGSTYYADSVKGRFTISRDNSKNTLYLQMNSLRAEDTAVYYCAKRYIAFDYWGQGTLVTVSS
VL: DIQMTQSPSSLSASVGDRVTITCRASQSISSYLNWYQQKPGKAPKLLIYAASSLQSGVPSRFSGSGSGTDFTLTISSLQPEDFATYYCQQGGMPPDTFGQGTKVEIKR
notes: unconjugated in flow cytometry; also called AE2P IgG4; IgG4 (AE2P)
With B2, the binding result (with murine CD28 Fc; in test [2]; in test [1]; in test [3]; in test [4]) was “binds” throughout.

B3: TGN1412 IgG4 (antibody, V domains shown)
VH: QVQLVQSGAEVKKPGASVKVSCKASGYTFTSYYIHWVRQAPGQGLEWIGCIYPGNVNTNYNEKFKDRATLTVDTSISTAYMELSRLRSDDTAVYFCTRSHYGLDWNFDVWGQGTTVTVSS
VL: not shown
notes: U.S. Pat. No. 8,709,414'; also called TGN1412 antibody in IgG4 format
For B3, the binding result in the test with murine CD28 Fc was “no binding”; in test [5], “no binding (tested: 50 nM)”; in test [4], “no binding”.
